In the test the target is green fluorescent protein (GFP), recombinant (Aequorea victoria, UniProt P42212 1-238 = GFP). As to the kind of experiment: not stated there (SPR or in vitro binding assay).

B1: LaG-41 (VHH)
VHH: DVQLVESGGGLVQAGGSLRLSCAASGPTGAMAWFRQAPGKEREFVGGISGSETDTYYVDSVKGRFTVDRDNVKNTVYLQMNSLKPEDTAVYYCAARRRITLFTSRTDYDFWGRGTQVTV
The term Kd denotes the free concentration of one partner at which half of the binding sites on the other are occupied at equilibrium, for simple one-to-one binding. In the case of B1, the Kd amounted to 0.9 nM.

These data come from US20240002475A1 (ROCKEFELLER UNIVERSITY, published 2024).
